The numbers were not newly measured in publication PMC5683942, which cites them from elsewhere.

What is called Kd is the free concentration of one partner at which half of the binding sites on the other are occupied at equilibrium, for simple one-to-one binding.

Series [1] concerns the target Histone H4 K5buK8bu (Homo sapiens) (UniProt P62805).
Series [2] deals with Histone H4 K5ac (Homo sapiens) (UniProt P62805).
The target in series [3] is Histone H4 K8ac (Homo sapiens) (UniProt P62805).
Series [4] has as its target Histone H4 K12ac (Homo sapiens) (UniProt P62805).
Series [5] has as its target Histone H3 K14ac (Homo sapiens) (UniProt P68431).
Series [6] addresses Histone H2A K5ac (Homo sapiens) (UniProt P0C0S8).

As for BRD9 bromodomain (from UniProt Q9H8M2), in series [1], the Kd was 60 µM.

As for BRPF1 bromodomain (from UniProt P55201), the Kd was 1240 µM in series [2]; 697 µM in series [3]; 86.5 µM in series [4]; 626 µM in series [5]; 48.5 µM in series [6].
